According to the nanobody polyreactivity screen of Harvey et al. (2022):

Assay: yeast display, Sf9 membrane polyspecificity reagent, FACS + sequencing; frameworks hold sequencing errors
How it was run: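 Galactose-induced (36–48 hours) yeast carrying a synthetic nanobody display library were exposed to 10% biotinylated, detergent-solubilized Sf9 membrane reagent at 4 °C for 1 hour. FACS followed streptavidin microbead enrichment, using low and high (top ~1%) gates for expression (anti-HA) and reagent binding (streptavidin). Colony PCR, MiSeq 2 × 250 sequencing and CDR-length filtering followed. Labels for polyreactivity reflect the gate of origin.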

| Sequence | polyreactivity (PSR sort gate) |
| --- | --- |
| QVQLVESGGGLVQAGGSLRLTCAASGLIFRRYAMGWYRQAPGKERELVAAINTSGGSTYYADSVKGRFTISRDNAKNTVYLQMNSLKPEDSAVSYCNTVSPYKYDWGKGTQVTVSS | low polyreactivity |
| QVQLVESGGGLVQAGGSLRLTCAASGLILYWYAMGLYRQAPGTEMELVAAISISGGSTYYADSVKGRFTISRDNAKNTVYLQMNSLKPEDTAVYYCAAVYFYSWEGDGDYWGQGTQVTVSS | low polyreactivity |
| QVQLVESGGGLVQAGGSLRLTCAASGLTFLVYALGWYRQEPGKEWEFVATISKSGGRTYYADSVKGRFTISRDNAKNTVYVQMNSLKPEHTAVDYCAAKGYPYGRLWCGYYRYDYWGQGTQVTVSS | high polyreactivity |
| QVQLVESGGGLVQAGGSLRLTCAASGLTFNHNAMGWCRQAPGKERELVAAISRRGGSTYYADSVKGRFTISRDNAKNTVYLQMNSLKPEDTAVYYCAARRAWSWKIYDYWGQGTQVTVSS | high polyreactivity |
| QVQLVESGGGLVQAGGSLRLTCAASGLTFNYYAMGWYRQAPGKERELVAAISSDGRTDYADSVKGRFTISRDNAKNTVYLQMNSLKPEDTAVYYCAASWYRWGKSWRQYDYWGQGTQVNVSS | low polyreactivity |
| QVQLVESGGGLVQAGGSLRLTCAASGLTFSFYAMGWYRQAPGKEWELVAALSKGGGSTSYADSVKGRFTISRDNAKNTFYLQRNSLKPGDTAVYSCAAKDYKAPNKRLYDYWGQGTQVTVSS | high polyreactivity |
| QVQLVESGGGLVQAGGSLRLTCAASGNIYLYYAMGWYRQAPGKERELVADIDSSGASTYYADSVKGRFTSSRDNAKNTVYLQMNSLKAEDTAVYYCAAEFHWWYAGYDYGYWGQGTQVTVSS | low polyreactivity |
| QVQLVESGGGLVQAGGSLRLTCAASGNTFVSNAMGWYRQAPGKERELVAAIDSGGSTNYADSVKGRFTISRDNAKNTVYLQMNSLKPEDTAVYYCNRTSVYYYYWGQGTQVTVSS | low polyreactivity |
| QVQLVESGGGLVQAGGSLRLTCAASGPIFVLYAMGWYRQAPGKERELVAAISTSGGSTYYADSVKGRFTISRDNAKNTVYLQMNSLKPEDTAVYYCAADRSARFLFIQYYPYGMDYWGQGTQVTVSS | high polyreactivity |
| QVQLVESGGGLVQAGGSLRLTCAASGRIFSSYAMGWYRQAPGKERELVAAITGRDGSTYYADSVKGRFTISRDNAKNTVYLQMNSLKPEETAVYYCAASRFYFPLTFGGYPKLASYDYWGQGTQVTVSS | low polyreactivity |
| QVQLVESGGGLVQAGGSLRLTCAASGRIFSYYDMGWYRKAPGKERELVARISYSGDSTYYADSVKGRFTISRDNAKNTVYLQMNSLKPEDTAVYYCAAEVDSGYSEYYWGQGTQVTVSS | low polyreactivity |
| QVQLVESGGGLVQAGGSLRLTCAASGRIFTSYAMGWYRQAPGKERELVATITGSTASTYYADSVKGRFTISRDNAKYTVYLQMNSLKPEDTAVYYCAARSVGKRGYDYWGQCTQVTVSS | high polyreactivity |
| QVQLVESGGGLVQAGGSLRLTCAASGRIFTTYAMGWYRQAPGKERELVAAISRSGGSTYYADSVKGRFTISRDNAKNTVYLQMNSMKPEDTAVYYCAAVPTSNSFRSSFYYWGQGTQVTVSS | high polyreactivity |
| QVQLVESGGGLVQAGGSLRLTCAASGRIFYQYAMGWYRQAPGKEMDLVASITTSGGNTYYADSVKGRFTISRDNAKNTVYLQMNSLKPEDTAVYYCAARFNWRQWLYEYWGQGTQVTVSS | low polyreactivity |
| QVQLVESGGGLVQAGGSLRLTCAASGRIFYYYAMAWYRQAPGKEMELVAAIRRGGFTYYADSVKGRFTISRDNAKNTVYLQMYSLKQEDTAVYYCAAGVSKPNGYYYLRGYERGYWGQGTQVTVSS | high polyreactivity |
| QVQLVESGGGLVQAGGSLRLTCAASGRILSHYAMVWYIQAPGKERELVATINSGGATYYADSVKGRFTISRDNAKYTVYFQMNSLKPEDTAVYYCAVDYAVSYAGWVLRYDYWGQGTQVTVSS | low polyreactivity |
| QVQLVESGGGLVQAGGSLRLTCAASGRNFQVYAMGWYRQAPGKERELVAGITRAGSTYYADSVKGRFTISRDNAKNTVYLQLNSLKPEDTAVYYCAASRWHGYNYWGQGTQVTVSS | high polyreactivity |
